Each block holds one binder with its values, some of them ahead of it.
Columns and labels:
[1] = biological target: T1, cation-independent mannose-6-phosphate receptor (CI-M6PR), as used in the in vitro receptor binding assay …; test: ELISA, CI-M6PR binding, detection with antibody to human Naglu
[2] = biological target: T1, cation-independent mannose-6-phosphate …; test: in vitro CI-M6PR binding assay
[3] = biological target: cation-independent mannose-6-phosphate receptor (CI-M6PR) on cells overexpressing CI-M6PR; test: cellular uptake assay on cells overexpressing CI-M6PR, intracellular Naglu activity read-out

Kd [1]: 0.0324 µM
B1: Naglu-LIF fusion protein (produced in HT-1080 cells) (enzyme)
chain: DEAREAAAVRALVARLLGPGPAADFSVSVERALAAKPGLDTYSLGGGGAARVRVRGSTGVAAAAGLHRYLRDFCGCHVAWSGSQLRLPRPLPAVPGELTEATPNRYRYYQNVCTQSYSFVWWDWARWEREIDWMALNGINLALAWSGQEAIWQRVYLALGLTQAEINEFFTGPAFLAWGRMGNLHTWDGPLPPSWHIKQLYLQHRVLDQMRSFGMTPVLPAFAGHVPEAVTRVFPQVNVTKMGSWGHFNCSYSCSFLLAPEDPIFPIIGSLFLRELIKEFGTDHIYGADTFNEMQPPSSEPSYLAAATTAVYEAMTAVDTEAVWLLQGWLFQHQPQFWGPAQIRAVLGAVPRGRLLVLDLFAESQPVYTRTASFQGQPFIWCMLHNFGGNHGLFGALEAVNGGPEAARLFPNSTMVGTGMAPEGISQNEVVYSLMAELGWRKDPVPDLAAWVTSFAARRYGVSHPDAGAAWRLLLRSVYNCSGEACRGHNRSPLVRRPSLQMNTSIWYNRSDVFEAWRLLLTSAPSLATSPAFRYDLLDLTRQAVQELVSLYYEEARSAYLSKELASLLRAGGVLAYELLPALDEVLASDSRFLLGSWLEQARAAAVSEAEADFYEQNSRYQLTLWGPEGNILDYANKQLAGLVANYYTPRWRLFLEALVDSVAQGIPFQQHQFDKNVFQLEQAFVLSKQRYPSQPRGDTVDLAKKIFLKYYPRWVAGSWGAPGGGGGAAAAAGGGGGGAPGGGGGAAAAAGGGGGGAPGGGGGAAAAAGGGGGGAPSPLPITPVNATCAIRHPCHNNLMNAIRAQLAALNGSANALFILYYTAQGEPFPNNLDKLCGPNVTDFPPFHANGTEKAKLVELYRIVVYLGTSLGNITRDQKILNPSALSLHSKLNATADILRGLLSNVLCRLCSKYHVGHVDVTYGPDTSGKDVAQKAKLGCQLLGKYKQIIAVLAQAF
modifications: N-linked glycosylation sites in the LIF part marked (N); by anti-M6P Western blot not M6P-phosphorylated in any detectable manner when overexpressed alone

Kd [2]: ~0.065 µM
B2: recombinant human Naglu (rhNaglu) produced in HT-1080 cells overexpressing GNPT (enzyme)
chain: DEAREAAAVRALVARLLGPGPAADFSVSVERALAAKPGLDTYSLGGGGAARVRVRGSTGVAAAAGLHRYLRDFCGCHVAWSGSQLRLPRPLPAVPGELTEATPNRYRYYQNVCTQSYSFVWWDWARWEREIDWMALNGINLALAWSGQEAIWQRVYLALGLTQAEINEFFTGPAFLAWGRMGNLHTWDGPLPPSWHIKQLYLQHRVLDQMRSFGMTPVLPAFAGHVPEAVTRVFPQVNVTKMGSWGHFNCSYSCSFLLAPEDPIFPIIGSLFLRELIKEFGTDHIYGADTFNEMQPPSSEPSYLAAATTAVYEAMTAVDTEAVWLLQGWLFQHQPQFWGPAQIRAVLGAVPRGRLLVLDLFAESQPVYTRTASFQGQPFIWCMLHNFGGNHGLFGALEAVNGGPEAARLFPNSTMVGTGMAPEGISQNEVVYSLMAELGWRKDPVPDLAAWVTSFAARRYGVSHPDAGAAWRLLLRSVYNCSGEACRGHNRSPLVRRPSLQMNTSIWYNRSDVFEAWRLLLTSAPSLATSPAFRYDLLDLTRQAVQELVSLYYEEARSAYLSKELASLLRAGGVLAYELLPALDEVLASDSRFLLGSWLEQARAAAVSEAEADFYEQNSRYQLTLWGPEGNILDYANKQLAGLVANYYTPRWRLFLEALVDSVAQGIPFQQHQFDKNVFQLEQAFVLSKQRYPSQPRGDTVDLAKKIFLKYYPRWVAGSW
modifications: M6P on N-linked glycans enhanced by co-expression with GNPT
notes: Same polypeptide as rhNaglu; It differs in being co-expressed with GNPT; also called GNPT/rhNaglu; rhNaglu produced using a GNPT overexpressing cell line

Kd [2]: 0.00024 µM
Kd [1]: ~0.00021 µM
fold higher affinity than Naglu-SapDC produced in GNPT overexpressing cells [3]: 3.6 fold
B3: Naglu-IGFII fusion protein (produced in HT-1080 cells) (enzyme)
chain: DEAREAAAVRALVARLLGPGPAADFSVSVERALAAKPGLDTYSLGGGGAARVRVRGSTGVAAAAGLHRYLRDFCGCHVAWSGSQLRLPRPLPAVPGELTEATPNRYRYYQNVCTQSYSFVWWDWARWEREIDWMALNGINLALAWSGQEAIWQRVYLALGLTQAEINEFFTGPAFLAWGRMGNLHTWDGPLPPSWHIKQLYLQHRVLDQMRSFGMTPVLPAFAGHVPEAVTRVFPQVNVTKMGSWGHFNCSYSCSFLLAPEDPIFPIIGSLFLRELIKEFGTDHIYGADTFNEMQPPSSEPSYLAAATTAVYEAMTAVDTEAVWLLQGWLFQHQPQFWGPAQIRAVLGAVPRGRLLVLDLFAESQPVYTRTASFQGQPFIWCMLHNFGGNHGLFGALEAVNGGPEAARLFPNSTMVGTGMAPEGISQNEVVYSLMAELGWRKDPVPDLAAWVTSFAARRYGVSHPDAGAAWRLLLRSVYNCSGEACRGHNRSPLVRRPSLQMNTSIWYNRSDVFEAWRLLLTSAPSLATSPAFRYDLLDLTRQAVQELVSLYYEEARSAYLSKELASLLRAGGVLAYELLPALDEVLASDSRFLLGSWLEQARAAAVSEAEADFYEQNSRYQLTLWGPEGNILDYANKQLAGLVANYYTPRWRLFLEALVDSVAQGIPFQQHQFDKNVFQLEQAFVLSKQRYPSQPRGDTVDLAKKIFLKYYPRWVAGSWGAPGGGGGAAAAAGGGGGGAPGGGGGAAAAAGGGGGGAPGGGGGAAAAAGGGGGGAPLCGGELVDTLQFVCGDRGFYFSRPASRVSRRSRGIVEECCFRSCDLALLETYCATPAKSE
notes: Purified from conditioned medium
